# Measured values reported in article PMC4078746 (Current biology : CB, 2010).
# Target: the molecule itself
# Assay: SEC
protein,measurement,value
"Robo2^R1I1+2 Ig1-5 fragment (Ig1+2 of Robo, Ig3-5 of Robo2) (domain or fragment) not shown",stoichiometry N,2
